Data from PMC5014086 (2016).
Like-named read-outs stand apart in the source and are kept apart here. One block for each binder: values may come before it.

Legend:
Experiment in all cases: SPR
[1] = target: T1, wild-type KRM1ECD as immobilised for SPR (human, UniProt Q96MU8 21-392)
T1 chain: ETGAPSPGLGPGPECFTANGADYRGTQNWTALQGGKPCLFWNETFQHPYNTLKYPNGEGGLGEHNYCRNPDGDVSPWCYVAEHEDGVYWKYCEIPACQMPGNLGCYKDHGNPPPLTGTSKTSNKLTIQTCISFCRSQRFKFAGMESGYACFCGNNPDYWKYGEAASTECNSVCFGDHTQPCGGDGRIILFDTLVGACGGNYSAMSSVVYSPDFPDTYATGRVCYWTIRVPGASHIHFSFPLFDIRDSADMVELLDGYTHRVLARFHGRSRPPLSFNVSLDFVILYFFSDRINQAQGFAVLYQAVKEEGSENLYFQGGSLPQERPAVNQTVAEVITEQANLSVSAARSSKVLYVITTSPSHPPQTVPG

[2] = target: T2, GlycoCUB mutant of KRM1ECD (309NQA311→NQS, N-glycan at N309) (human, UniProt Q96MU8 21-392, 309NQA311→NQS, additional N-glycan at N309)
T2 sequence: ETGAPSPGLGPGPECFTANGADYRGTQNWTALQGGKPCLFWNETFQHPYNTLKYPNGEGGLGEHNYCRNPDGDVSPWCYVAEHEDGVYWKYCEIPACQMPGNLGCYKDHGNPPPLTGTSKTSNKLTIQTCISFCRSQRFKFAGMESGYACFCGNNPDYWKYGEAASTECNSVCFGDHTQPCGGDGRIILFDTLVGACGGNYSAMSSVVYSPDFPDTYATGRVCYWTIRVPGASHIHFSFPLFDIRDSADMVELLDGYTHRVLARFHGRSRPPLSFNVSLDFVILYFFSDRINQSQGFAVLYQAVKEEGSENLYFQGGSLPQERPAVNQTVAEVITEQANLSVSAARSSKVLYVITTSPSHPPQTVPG

[3] = target: T1, wild-type KRM1ECD as immobilised for SPR
LRP6_(PE1PE2) fragment = target: T3, LRP6_(PE1PE2) fragment; details: chain shown with the change; 25 µM LRP6PE1PE2 (highest concentration of the titration); parent: est. 100; read off a plot
T3 chain: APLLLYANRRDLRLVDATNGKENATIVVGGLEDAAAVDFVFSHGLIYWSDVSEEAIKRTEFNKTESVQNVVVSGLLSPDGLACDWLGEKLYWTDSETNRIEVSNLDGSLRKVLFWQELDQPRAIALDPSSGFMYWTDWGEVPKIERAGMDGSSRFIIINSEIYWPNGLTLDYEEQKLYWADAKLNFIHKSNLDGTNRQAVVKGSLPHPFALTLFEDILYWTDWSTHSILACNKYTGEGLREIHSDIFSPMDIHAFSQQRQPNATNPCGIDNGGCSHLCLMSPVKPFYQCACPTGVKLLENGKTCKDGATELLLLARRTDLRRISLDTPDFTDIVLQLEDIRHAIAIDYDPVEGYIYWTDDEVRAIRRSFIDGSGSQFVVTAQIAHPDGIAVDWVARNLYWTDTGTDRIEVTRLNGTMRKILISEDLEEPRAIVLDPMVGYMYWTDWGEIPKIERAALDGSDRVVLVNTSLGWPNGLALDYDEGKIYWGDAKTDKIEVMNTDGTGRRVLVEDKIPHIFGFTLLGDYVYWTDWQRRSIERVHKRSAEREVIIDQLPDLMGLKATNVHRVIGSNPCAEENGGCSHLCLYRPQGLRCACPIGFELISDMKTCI

Kd [1]: 18.9 µM
B1: LRP6_(PE1PE2) fragment (domain or fragment)
chain: APLLLYANRRDLRLVDATNGKENATIVVGGLEDAAAVDFVFSHGLIYWSDVSEEAIKRTEFNKTESVQNVVVSGLLSPDGLACDWLGEKLYWTDSETNRIEVSNLDGSLRKVLFWQELDQPRAIALDPSSGFMYWTDWGEVPKIERAGMDGSSRFIIINSEIYWPNGLTLDYEEQKLYWADAKLNFIHKSNLDGTNRQAVVKGSLPHPFALTLFEDILYWTDWSTHSILACNKYTGEGLREIHSDIFSPMDIHAFSQQRQPNATNPCGIDNGGCSHLCLMSPVKPFYQCACPTGVKLLENGKTCKDGATELLLLARRTDLRRISLDTPDFTDIVLQLEDIRHAIAIDYDPVEGYIYWTDDEVRAIRRSFIDGSGSQFVVTAQIAHPDGIAVDWVARNLYWTDTGTDRIEVTRLNGTMRKILISEDLEEPRAIVLDPMVGYMYWTDWGEIPKIERAALDGSDRVVLVNTSLGWPNGLALDYDEGKIYWGDAKTDKIEVMNTDGTGRRVLVEDKIPHIFGFTLLGDYVYWTDWQRRSIERVHKRSAEREVIIDQLPDLMGLKATNVHRVIGSNPCAEENGGCSHLCLYRPQGLRCACPIGFELISDMKTCI

Kd [2]: 1.3 µM
Kd [3]: 1.2 µM
B2: full-length DKK1 (ligand)
chain: TLNSVLNSNAIKNLPPPLGGAAGHPGSAVSAAPGILYPGGNKYQTIDNYQPYPCAEDEECGTDEYCASPTRGGDAGVQICLACRKRRKRCMRHAMCCPGNYCKNGICVSSDQNHFRGEIEETITESFGNDHSTLDGYSRRTTLSSKMYHTKGQEGSVCLRSSDCASGLCCARHFWSKICKPVLKEGQVCTKHRRKGSHGLEIFQRCYCGEGLSCRIQKDHHQASNSSRLHTCQRH

Kd [3]: 0.4 µM
B3: SUMO-DKK1_(Linker-CRD2), SUMO fusion as SPR analyte (domain or fragment)
chain: SDQNHFRGEIEETITESFGNDHSTLDGYSRRTTLSSKMYHTKGQEGSVCLRSSDCASGLCCARHFWSKICKPVLKEGQVCTKHRRKGSHGLEIFQRCYCGEGLSCRIQKDHHQASNSSRLHTCQRH

response (response units) (LRP6_(PE1PE2) fragment): -20
B4: wild-type KRM1ECD as immobilised for SPR, Q96MU8 A311S (protein)
chain: ETGAPSPGLGPGPECFTANGADYRGTQNWTALQGGKPCLFWNETFQHPYNTLKYPNGEGGLGEHNYCRNPDGDVSPWCYVAEHEDGVYWKYCEIPACQMPGNLGCYKDHGNPPPLTGTSKTSNKLTIQTCISFCRSQRFKFAGMESGYACFCGNNPDYWKYGEAASTECNSVCFGDHTQPCGGDGRIILFDTLVGACGGNYSAMSSVVYSPDFPDTYATGRVCYWTIRVPGASHIHFSFPLFDIRDSADMVELLDGYTHRVLARFHGRSRPPLSFNVSLDFVILYFFSDRINQSQGFAVLYQAVKEEGSENLYFQGGSLPQERPAVNQTVAEVITEQANLSVSAARSSKVLYVITTSPSHPPQTVPG
